The target in this assay is T1, Flamma 552-conjugated Aβ(1–42) (Flamma 552 dye conjugated (position not given)).
T1 construct: numbers count on: the Aβ peptide; also called Flamma 552-labeled Aβ(1–42); monomeric Aβ(1–42) labeled with fluorescent dye Flamma 552
The assay can be described thus: peptide or protein array; Aβ hexapeptides and full-length Aβ(1–42), each with a C-terminal cysteine, immobilised on maleimide-activated microplates (50 μg/mL, binding buffer 0.1 M sodium phosphate, 0.15 M NaCl, 10 mM EDTA, pH 7.2); Flamma 552-Aβ(1–42) 10 μM in deionized water (10% DMSO), 37°C, 2 h; fluorescence 555/580 nm as baseline before YIAD002. Conditions: both partners purified.

Two molecules from paper PMC9706920, “Aryloxypropanolamine targets amyloid aggregates and reverses Alzheimer-like phenotypes in Alzheimer mouse models” (Alzheimer's Research & Therapy, 2022) can be followed below.

B1: Aβ(32–37) fragment IGLMVG with a cysteine residue at the C-terminal (peptide)
chain: IGLMVGC
modifications: C-terminal cysteine coupled to the maleimide-activated microplate
notes: amyloid-β residues 32-37; numbers count on: the Aβ peptide; cysteine residue at the C-terminal, told in words, for immobilisation; source: synthetic peptide (Fmoc solid phase peptide synthesis)
Consider B1, for which the binding result is recorded as “binds”.

B2: Aβ(16–21) fragment KLVFFA with a cysteine residue at the C-terminal (peptide)
chain: KLVFFAC
modifications: C-terminal cysteine coupled to the maleimide-activated microplate
notes: amyloid-β residues 16-21; numbers count on: the Aβ peptide; cysteine residue at the C-terminal, told in words, for immobilisation; source: synthetic peptide (Fmoc solid phase peptide synthesis)
For the molecule B2, the binding result is recorded as “binds”.
